Data on one substance can be found in patent US20240181006A1, “POLYPEPTIDES BINDING ADAMTS5, MMP13 AND AGGRECAN” (Merck Patent GmbH, priority 2017, published 2024).

What all share (assay): cell-based or functional assay
Test [1] has as its target bovine MMP13 (activated) (bovine) (UniProt O77656).
Test [2] deals with cynomolgus MMP13 (activated) (cynomolgus).
Test [3] has as its target dog MMP13 (activated) (dog).
Test [4] deals with human MMP13 (activated) (human) (UniProt P45452).
The target of test [5] is rat MMP13 (activated) (rat) (UniProt P23097).

Substance TIMP-2 (from UniProt P16035 27-220) showed an IC50, bovine fluorogenic peptide assay in test [1] of 1.1 nM. The substance further came in with an IC50, cyno fluorogenic peptide assay in test [2] of 0.4 nM. The substance further had an IC50, dog fluorogenic peptide assay in test [3] of 0.9 nM. Moreover, in test [4], the IC50, human collagenolytic assay was 0.4 nM; the IC50, human fluorogenic collagen assay is 2.4 nM; the IC50, human fluorogenic peptide assay is 0.5 nM. In test [5], this substance displayed an IC50, rat fluorogenic peptide assay of 0.4 nM.
